Experiments:
Assay in all cases: peptide or protein array
[1] = molecular target: T1, Statherin peptide (18-mer) (human)
T1 peptide: RFGYGYGPYQPVPEQPLY

[2] = molecular target: T2, Proline-rich protein 4 peptide (18-mer) (human)
T2 peptide: GHRQLSLPRFPSVSLQEA

[3] = molecular target: T3, Adenylyl cyclase–associated protein 1 peptide (18-mer) (human)
T3 peptide: PPPPPPCPPPPPVSTISC

[4] = molecular target: T4, Tyrosine protein kinase ABL1 peptide (18-mer) (human)
T4 peptide: KKKKKTAPTPPKRSSSFR

[5] = molecular target: T5, Tight junction protein ZO-2 peptide (18-mer) (human)
T5 peptide: FGRSILKPSTPIPPQEGE

[6] = molecular target: T6, Serine-threonine protein kinase WNK1 peptide (18-mer) (human)
T6 peptide: NATALELPGLPLSLPQPS

[7] = molecular target: T7, U1 small nuclear ribonucleoprotein C peptide (18-mer) (human)
T7 peptide: GAMIPPPPSLPGPPRPGM

[8] = molecular target: T8, DAZ-associated protein 1 peptide (18-mer) (human)
T8 peptide: QFSFGYGPPPPPPDQFAP

[9] = molecular target: T9, Splicing factor 1 peptide (18-mer) (human)
T9 peptide: GMPPFGMPPAPPPPPPQN

[10] = molecular target: T10, Diaphanous homolog 1 peptide (18-mer) (human)
T10 peptide: LPGGTAIPPPPPLPGSAR

[11] = molecular target: T11, Gephyrin peptide (18-mer) (human)
T11 peptide: FGRVFMKPGLPTTFATLD

[12] = molecular target: T12, Dishevelled, dsh homolog 3 peptide (18-mer) (human)
T12 peptide: MAFPRPRPWGPQEPLRAA

[13] = molecular target: T13, YLP motif–containing protein 1 peptide (18-mer) (human)
T13 peptide: HHLPPPPLPPPPVMPGGG

[14] = molecular target: T14, Glutamate–cysteine ligase catalytic peptide (18-mer) (human)
T14 peptide: WQTMRFKPPPPNSDIGWR

[15] = molecular target: T15, Serine-threonine protein kinase N3 peptide (18-mer) (human)
T15 peptide: EMTPPPKPPRLYLPQEPT

[16] = molecular target: T16, NEDD9-interacting protein with calponin homology and LIM domains peptide (18-mer) (human)
T16 peptide: DPEMEPPPKPPRSCSALA

[17] = molecular target: T17, Ankyrin repeat and SAM domain–containing protein 1A peptide (18-mer) (human)
T17 peptide: DRPYEEPPQKPPRFSQLR

[18] = molecular target: T18, Rab11 family interacting protein 5 peptide (18-mer) (human)
T18 peptide: RIMETSPTLLQIPPGPPK

[19] = molecular target: T19, Focal adhesion kinase 1 peptide (18-mer) (human)
T19 peptide: DPAAPPKKPPRPGAPGHL

[20] = molecular target: T20, SET and MYND domain–containing protein 3 peptide (18-mer) (human)
T20 peptide: NGLRAVTPLRPGELLFRS

[21] = molecular target: T21, EGFR kinase substrate 8 peptide (18-mer) (human)
T21 peptide: PKEQFIPPYVPRFRNGWE

[22] = molecular target: T22, UPF0027 protein C22orf28 peptide (18-mer) (human)
T22 peptide: GSTRAFPPHHPLIAVDYQ

[23] = molecular target: T23, Coiled-coil domain–containing protein KIAA1826 peptide (18-mer) (human)
T23 peptide: SRRENELPDFPHIDEFFT

B1: GST-tagged SNX26 SH3 domain (domain or fragment, human, UniProt O14559 189-247, looked up)
chain: AAAHVIKRYTAQAPDELSFEVGDIVSVIDMPPTEDRSWWRGKRGFQVGFFPSECVELFT
B1 was tested, and the “relative binding strength (% of the strongest interaction of this SH3 domain)” value [1] was 28%, the “relative binding strength (% of the strongest interaction of this SH3 domain)” value [2] was 100% and the “relative binding strength (% of the strongest interaction of this SH3 domain)” value [3] was 10%. The “relative binding strength (% of the strongest interaction of this SH3 domain)” value [4] was 20%.

B2: GST-tagged ARHGAP12 SH3 domain (domain or fragment, human, UniProt Q8IWW6 15-73, looked up)
chain: VYIEVEYDYEYEAKDRKIVIKQGERYILVKKTNDDWWQVKPDENSKAFYVPAQYVKEVT
B2 was tested, and the “relative binding strength (% of the strongest interaction of this SH3 domain)” value [5] was 93%, the “relative binding strength (% of the strongest interaction of this SH3 domain)” value [6] was 52% and the “relative binding strength (% of the strongest interaction of this SH3 domain)” value [7] was 100%.

B3: GST-tagged ARHGAP4 SH3 domain (domain or fragment)
chain: not shown
In the case of B3, the “relative binding strength (% of the strongest interaction of this SH3 domain)” value [8] is reported as 18%, the “relative binding strength (% of the strongest interaction of this SH3 domain)” value [9] is reported as 7% and the “relative binding strength (% of the strongest interaction of this SH3 domain)” value [10] is reported as 100%.

B4: GST-tagged SRGAP2 SH3 domain (domain or fragment)
chain: not shown
For B4, the “relative binding strength (% of the strongest interaction of this SH3 domain)” value [11] was 55%, the “relative binding strength (% of the strongest interaction of this SH3 domain)” value [12] was 9% and the “relative binding strength (% of the strongest interaction of this SH3 domain)” value [13] was 100%. The “relative binding strength (% of the strongest interaction of this SH3 domain)” value [14] was 18%.

B5: GST-tagged ARHGAP26 SH3 domain (domain or fragment, human, UniProt Q9UNA1 759-814, looked up)
chain: RKAKALYACKAEHDSELSFTAGTVFDNVHPSQEPGWLEGTLNGKTGLIPENYVEFL
For B5, the “relative binding strength (% of the strongest interaction of this SH3 domain)” value [15] was 100%, the “relative binding strength (% of the strongest interaction of this SH3 domain)” value [16] was 64% and the “relative binding strength (% of the strongest interaction of this SH3 domain)” value [17] was 27%. The “relative binding strength (% of the strongest interaction of this SH3 domain)” value [18] was 6% and the “relative binding strength (% of the strongest interaction of this SH3 domain)” value [19] was 91%.

B6: GST-tagged ARHGAP9 SH3 domain (domain or fragment, human, UniProt Q9BRR9 25-87, looked up)
chain: SQLCALYAFTYTGADGQQVSLAEGDRFLLLRKTNSDWWLARRLEAPSTSRPIFVPAAYMIEES
In the case of B6, the “relative binding strength (% of the strongest interaction of this SH3 domain)” value [20] is reported as 100%, the “relative binding strength (% of the strongest interaction of this SH3 domain)” value [21] is reported as 24% and the “relative binding strength (% of the strongest interaction of this SH3 domain)” value [22] is reported as 13%. The “relative binding strength (% of the strongest interaction of this SH3 domain)” value [23] was 70%.
